These results are taken from PMC4143292, “An Enzymatic Platform for the Synthesis of Isoprenoid Precursors” (PLoS ONE, 2014).

The subject of the series is C=C(OP(=O)(O)O)C(=O)O. Description: purified protein. Conditions: Hepes pH 8.0, 25 C, apparent.

PK (pyruvate kinase) (Oryctolagus cuniculus), sequence (chain, as listed by the source): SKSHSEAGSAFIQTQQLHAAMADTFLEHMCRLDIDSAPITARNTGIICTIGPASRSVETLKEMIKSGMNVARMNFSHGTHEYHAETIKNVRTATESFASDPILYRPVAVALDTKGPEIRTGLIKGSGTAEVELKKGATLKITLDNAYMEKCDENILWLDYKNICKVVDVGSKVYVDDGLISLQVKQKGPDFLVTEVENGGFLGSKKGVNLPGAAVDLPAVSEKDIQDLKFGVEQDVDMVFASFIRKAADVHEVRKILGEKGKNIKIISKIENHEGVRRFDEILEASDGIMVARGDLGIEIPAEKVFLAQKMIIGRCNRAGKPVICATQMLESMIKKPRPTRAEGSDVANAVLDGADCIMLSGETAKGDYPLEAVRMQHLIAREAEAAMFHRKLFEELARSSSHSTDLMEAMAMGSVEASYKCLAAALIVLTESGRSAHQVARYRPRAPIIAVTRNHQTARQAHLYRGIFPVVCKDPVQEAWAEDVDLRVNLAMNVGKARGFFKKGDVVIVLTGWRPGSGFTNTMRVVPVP

The Km is the concentration of substrate that gives half-maximal velocity. The term kcat denotes the number of substrate molecules converted per active site and unit of time at saturation. For the substance “PK (pyruvate kinase) (Oryctolagus cuniculus)”, the Km was 40 µM and the catalytic constant (kcat) came to 160 s⁻¹.
